Reference: patent US12397052B2, “Microcapsule-based vaccine” (INSTITUTE OF PROCESS ENGINEERING, CHINESE ACADEMY OF …, priority 2018, dated 2025)

Columns and labels:
[1] = system: OVA+ cells; assay: Antigen utilization in thigh muscle by flow cytometry (OVA+ cells); type: in vivo, C57BL/6 mice; settings: 5th day
Protocol: Five days later, the mice were killed, and their muscle tissues containing the microspheres were taken out, cut into small pieces with scissors, ground into a suspension, resuspended in PBS at 4° C., and centrifuged to remove the supernatant. To the centrifugal residue, was added 1 mL of a solution of an enzyme mixture (made by dissolving collagenase D and 100 U/mL recombinant DNase I in RPMI 1640 medium) at a concentration of 1 mg/mL. The mixture was incubated at 37° C. for 30 min, washed with PBS, and subjected to filtration with a 20 μm cell sieve to get rid of impurities, giving a single-cell suspension. […] The BD LSRFortessa flow cytometer was used to detect OVA^+ cells, CD 11c^+OVA^+ cells, and F4/80^+OVA^+ cells, and the data was analyzed using the Flowjo software.
In the embedding group, as a result of the excellent antigen-retention capability and antigen-release capability, the number of OVA^+ cells increased by about 50 times, the endocytosis of OVA increased by 4 times or more, and the utilization of the antigen increased by 200 times or more. […] The utilization of the antigen was calculated by normalizing the number of OVA^+ cells multiplied by the fluorescence intensity using the utilization of the antigen of the simple antigen group.

[2] = system: E.G7 tumor cells; assay: E.G7 lymphoma solid tumor model
Protocol: To construct E.G7 tumor-bearing mice models, 1×10^6 E.G7 tumor cells (purchased from ATCC) were injected into 6-8 weeks old female C57BL/6 mice (purchased from Beijing Weitonglihua Experimental Animal Co., Ltd.) on the armpit, and the tumor-bearing mice were randomly divided into groups each consisting of 6 mice. The mice were vaccinated when the tumor grew to a volume of 50-60 mm^3 on the 4th day. […] The volume of the tumor was calculated by this formula: V=1/2×L×W^2 (where L is the length of the tumor, and W is the width of the tumor).

B1: simple antigen group: preparation of a simple fluorescent antigen (OVA labeled with dye Cy5), no carrier (protein, UniProt P01012 2-386, looked up)
Ovalbumin: GSIGAASMEFCFDVFKELKVHHANENIFYCPIAIMSALAMVYLGAKDSTRTQINKVVRFDKLPGFGDSIEAQCGTSVNVHSSLRDILNQITKPNDVYSFSLASRLYAEERYPILPEYLQCVKELYRGGLEPINFQTAADQARELINSWVESQTNGIIRNVLQPSSVDSQTAMVLVNAIVFKGLWEKAFKDEDTQAMPFRVTEQESKPVQMMYQIGLFRVASMASEKMKILELPFASGTMSMLVLLPDEVSGLEQLESIINFEKLTEWTSSNVMEERKIKVYLPRMKMEEKYNLTSVLMAMGITDVFSSSANLSGISSAESLKISQAVHAAHAEINEAGREVVGSAEAGVDAASVSEEFRADHPFLFCIKHIATNAVLFFGRCVSP
modifications: Cy5 dye label
notes: preparation of a simple fluorescent antigen (OVA labeled with dye Cy5), no carrier
fluorescence intensity of intracellular OVA [1]: very weak
number of OVA+ cells [1]: small

B2: OVA: free OVA antigen (Sigma), low-dose several times or high-dose (60 μg) a single time (protein, UniProt P01012 2-386, looked up)
Ovalbumin: GSIGAASMEFCFDVFKELKVHHANENIFYCPIAIMSALAMVYLGAKDSTRTQINKVVRFDKLPGFGDSIEAQCGTSVNVHSSLRDILNQITKPNDVYSFSLASRLYAEERYPILPEYLQCVKELYRGGLEPINFQTAADQARELINSWVESQTNGIIRNVLQPSSVDSQTAMVLVNAIVFKGLWEKAFKDEDTQAMPFRVTEQESKPVQMMYQIGLFRVASMASEKMKILELPFASGTMSMLVLLPDEVSGLEQLESIINFEKLTEWTSSNVMEERKIKVYLPRMKMEEKYNLTSVLMAMGITDVFSSSANLSGISSAESLKISQAVHAAHAEINEAGREVVGSAEAGVDAASVSEEFRADHPFLFCIKHIATNAVLFFGRCVSP
25-day survival rate (SR) ([2]; mouse, in vivo): 17%
tumor growth (E.G7) ([2]; vaccinated on 4th day): not inhibited
